Measurements taken from the supplement of paper PMC12042874.
± gives the uncertainty stated by the source.

Assay: amyloid nucleation score (Sup35N fusion, yeast selection) (log enrichment); library NNK1; higher = more nucleation; inactive = no reads after selection
Method in brief: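 Yeast lacking psi expressed peptides of 20 random codons fused to Sup35N, received 100 μM copper sulfate for 24 hours, and were then grown for 7 days at 30°C on medium lacking adenine and uracil. Illumina sequencing of input and output plasmid inserts provided the reads. Nucleation scores are DiMSum log enrichments of output over input, centred on the mode of non-aggregating sequences. Any sequence with under 100 input reads was excluded.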

| Substance | amyloid nucleation score |
| --- | --- |
| AENITGWVVPIVVTLTASAR | -0.163 ± 0.29 |
| AERPSLYWLKLRKRRITVV | 0.46 ± 1.2 |
| AEYCSNVGMSLYFLWSKPMQ | 1.89 ± 0.18 |
| AFEFKRLRIACVNDGQINLG | 2.43 ± 0.42 |
| AFGAVFRGEKR | 0.241 ± 1.4 |
| AFGVYRVCLVWVHL | 0.232 ± 0.49 |
| AFIARVTRFGVTRDPLIRQ | inactive |
| AFIDDRAVTCCYQTVLLCER | -0.341 ± 0.48 |
| AFLRVIDQQLRLEIHIIMKL | inactive |
| AFNRSKQSIKAFSA | -0.369 ± 1.2 |
| AFNYRSVCWLLGTGSSSWSE | inactive |
| AFPRARGYMG | -0.575 ± 0.37 |
| AFRCCMFAFVFCSSGDSRAE | 7.392 ± 0.056 |
| AFRIFPHL | inactive |
| AFRSRFVIFHDGIRVLGYAD | -1.13 ± 2.1 |
| AFTGQCEEKIS | -0.226 ± 0.42 |
| AFTPSWRTRLQMTTL | -0.386 ± 0.57 |
| AFWFMCWGMTRTRYV | 2.73 ± 0.11 |
| AFYRAFTPCISVPIRND | 0.765 ± 0.46 |
| AFYWLHLDGFLQLNQQMSVA | 0.992 ± 0.7 |
| AGGVKSCTKRFN | -0.232 ± 1.5 |
| AGLPRSGSIQRDYREKVWAA | -0.194 ± 1.3 |
| AGLVYEIKWYYADL | -0.482 ± 0.33 |
| AHRPGMFFRNYVVGDLS | -0.026 ± 0.48 |
| AHYRRVSVAQTHWMADPFGR | 0.976 ± 0.36 |

| Substance | amyloid nucleation score |
| --- | --- |
| AIALQV | -1.18 ± 0.94 |
| AIIDDHSVCYNVLKRFSNFG | 1.5 ± 0.66 |
| AIIERADLSGMPLFSGFPGD | -0.148 ± 0.8 |
| AKDFIGQSC | 0.688 ± 0.45 |
| AKELDNGIYFMKLWLREELE | -0.743 ± 1.2 |
| AKLAS | 0.151 ± 0.59 |
| AKSLVDRKRVDNPWRFSVGW | 0.297 ± 0.51 |
| AKSWCVSIKLVSDNSYLWET | 1.12 ± 0.14 |
| ALDQN | -0.412 ± 0.78 |
| ALDVARDKDVILYEFQLELR | 0.366 ± 0.72 |
| ALGVHR | 1.76 ± 0.61 |
| ALGYGIWGSICNWVWDPFTA | inactive |
| ALLCFLWCRMYGTFSTSCVL | 0.315 ± 0.85 |
| ALLIAY | -0.992 ± 0.59 |
| ALLWQECYMP | 2.26 ± 0.17 |
| ALMRLTRNSMSFWRQ | -0.17 ± 0.36 |
| ALPAMTQDKWHMNALRNYLD | 1.48 ± 0.81 |
| ALPCYCPPVQSPCASFGWME | -0.569 ± 0.29 |
| ALRGVRVMWAKRS | -0.484 ± 0.88 |
| ALSSNVGSMAFSR | -0.06 ± 0.88 |
| ALTIDRCRAESYLRRLTFLL | -0.653 ± 0.4 |
| ALWNYAVNSTLWWGLGYGWR | 0.052 ± 0.41 |
| ANMCISGAYNCVSVLCLRNR | 6.59 ± 0.047 |
| APHWLLRDPIESTADNDVYY | 2.73 ± 0.44 |
| APSLVVRPSFGGLRTRVVYP | 0.44 ± 0.58 |

| Substance | amyloid nucleation score |
| --- | --- |
| APVFYIPIMFSQLFGLAQIY | 6.935 ± 0.06 |
| AQSALLKS | -1.22 ± 1.2 |
| ARAFPNMPPVLILILHLRLY | 0.961 ± 0.35 |
| ARATQAEYRIERRGRFCILS | 0.21 ± 0.38 |
| ARGPLKSGINQNVCSCGTSI | 0.118 ± 1.5 |
| ARHKSENWNYAVDLLSLILS | 1.59 ± 0.41 |
| ARHPECQSCSWRYCLYVVHC | inactive |
| ARMSNMNPLFWLP | -0.04 ± 0.35 |
| ARPFRRCYSKADAWGVQQVG | 0.556 ± 0.79 |
| ARRGHKK | 1.32 ± 0.64 |
| ARVSGILLVMLCRYHFGLRE | 0.102 ± 0.69 |
| ARWMVWTLESHLPDNFTMVN | -1.21 ± 1.1 |
| ARYHYWGGERASSLNKVSQW | 0.699 ± 1 |
| ASAFVRVMNV | 0.527 ± 0.5 |
| ASAVIWGERAKLRKYLIPTR | 0.94 ± 0.7 |
| ASFSNCWG | 0.486 ± 0.32 |
| ASHLIYCFEARASLILL | 0.686 ± 1.1 |
| ASLSPNTASYNLELPSIMHM | 0.283 ± 0.71 |
| ASNTANIPYGII | 0.489 ± 0.32 |
| ASSIDYQRTS | 0.322 ± 0.71 |
| ASYRKCLLCIRLNC | -0.753 ± 0.86 |
| ATCLLAFMNFVSILERRSES | 1.86 ± 0.21 |
| ATLGDSEEYRLAFGLPLYCR | inactive |
| ATLVTV | 0.759 ± 0.67 |
| ATRRSCNLCLNLEFT | inactive |

| Substance | amyloid nucleation score |
| --- | --- |
| ATVDGRLIRDVSISCMGYDV | -1.12 ± 2.4 |
| ATWTAWRHVAHFWPWAHAKS | 0.936 ± 0.56 |
| ATYYFICMLIVQVHFCLFTM | -0.992 ± 0.5 |
| AVITLQVHLLPEYFQAACIT | 0.154 ± 0.38 |
| AVLHLSDCERNYFTFTVNCG | 6.207 ± 0.049 |
| AVLSGRHWHTLYNSIALSEL | 0.869 ± 0.45 |
| AVNSGRWLSVLRRRMESFLV | 0.203 ± 0.42 |
| AVPRAFIQKCSSITLSVYPM | -0.504 ± 0.99 |
| AVRVLPSLNVGAGMRQVVFT | 0.693 ± 0.5 |
| AVSMWLPNDLAMIRSYIGYY | -0.475 ± 0.52 |
| AVWLVQSHPN | 0.499 ± 0.58 |
| AVWSRRTCWGLRKQSGVVLT | 0.036 ± 0.32 |
| AWDFWTWVSSGVWWYDASVR | -0.398 ± 0.91 |
| AWIPFVNTKTEWRVMDVNFD | 0.399 ± 0.62 |
| AWKGWFLMGYCGDRVMWDWR | -0.131 ± 0.73 |
| AWLSGVNVVSKSQGCFLWYG | 0.551 ± 0.56 |
| AWRSFIGYRMRVWIGYRGCY | 0.186 ± 0.95 |
| AWSRLSVNPVVEENVMAIAL | 0.909 ± 0.69 |
| AWVRLYWAGR | 0.216 ± 0.68 |
| AWWRCCGTLRTVRSAAKGLM | -0.292 ± 1.1 |
| AYAEIYERSEPGKDRHYLFM | -0.313 ± 0.74 |
| AYAKLYKLSVLEPGRRVRMQ | 1.21 ± 0.57 |
| AYCRTNTNLRVLRIWNK | -0.611 ± 0.53 |
| AYLYQSSYLVRC | 0.368 ± 0.36 |
| AYPWRITFDAWISYV | 0.294 ± 0.76 |

| Substance | amyloid nucleation score |
| --- | --- |
| AYSVRICLDFGKNG | inactive |
| AYTEMNLRIVERYSMNTIRP | 2.14 ± 0.26 |
| CCFSSMNFIS | 4.04 ± 0.082 |
| CCGCWYIITKPYSNKVRKCA | 0.265 ± 0.73 |
| CCGMSGLSIGDGKNFMSGWV | 1.82 ± 0.45 |
| CCPRYMSIDSIDDRFYDKSF | inactive |
| CCPWEEHGICNEWRHRGSGT | -0.199 ± 0.46 |
| CCQRYCCTSGLANNWNRVYH | 0.812 ± 0.75 |
| CCRARDLIYLNITHAFFSIL | -0.289 ± 0.47 |
| CCRVISIWG | 0.115 ± 0.54 |
| CCSTSADIHSARNDVWSYSE | -0.271 ± 0.88 |
| CCTNM | 0.332 ± 0.22 |
| CCYYTSVILVFDGRFDEMPY | 4.23 ± 0.07 |
| CDCTSRGK | -0.407 ± 1.5 |
| CDFRIFRLSVPGTYYVCDWL | -0.018 ± 0.6 |
| CDGRW | 0.186 ± 0.3 |
| CDNGPLLIVGVRHRTRACVT | 0.861 ± 0.38 |
| CDSKLHISSSC | 0.313 ± 0.84 |
| CDSTVMRGLYCGRVVYSLFV | 0.721 ± 0.47 |
| CEAMVLKGCAEAVQYRATDS | -0.23 ± 1.1 |
| CEEKCSHNVGTY | 0.458 ± 0.55 |
| CEFLIFTFRVSGEVLLQSRA | 0.265 ± 0.92 |
| CEGMVIMVGRVLRTSYLYNL | 0.001 ± 0.61 |
| CETVG | inactive |
| CEWVWRGSVCSIWLLVLLPV | 0.09 ± 0.41 |

| Substance | amyloid nucleation score |
| --- | --- |
| CFEDRYSLRCGM | -0.397 ± 0.34 |
| CFEFDPFMNMVKSCWCCQVA | -0.281 ± 0.93 |
| CFEYFY | -0.664 ± 0.32 |
| CFFYDCGWTCPLKNIGSYTF | 0.07 ± 0.51 |
| CFLMNLVAYFVFLRTLS | 1.49 ± 0.56 |
| CFMVHNTVVRVGKE | 0.177 ± 0.7 |
| CFPPSNCYLLYKLCVLLRIN | -0.134 ± 0.45 |
| CFQLRVGMTDDALWRLMC | -0.452 ± 1.9 |
| CFQVYICVVDSDYRNFLWDA | 3.73 ± 0.077 |
| CFSGPPMTESVYNPTSGNEH | 0.152 ± 0.72 |
| CFSHVWVDLIDFYVRFVLFR | -0.209 ± 0.69 |
| CFSQVCDKFMMEMMFSCFKV | 0.451 ± 0.24 |
| CFTICFVGYCSRVKGWLMQR | -0.617 ± 0.71 |
| CFTYSARH | 3.67 ± 0.11 |
| CGAMGVVL | 0.112 ± 0.26 |
| CGCCARWNYIIMMGWGGCVL | 0.096 ± 0.69 |
| CGEIENRMVTEAVTALLLYD | 0.034 ± 0.41 |
| CGRKGEHIFYTTDNEYLNYV | 0.211 ± 0.36 |
| CGVNLKNLLTMLPDIGLHAV | 0.227 ± 0.25 |
| CGWRSLVVFSFDLDAS | 0.876 ± 0.47 |
| CHIGSRPLASMKAFPHCDVA | 1 ± 0.57 |
| CHNHRMYH | 0.072 ± 0.9 |
| CHNVAVPRVIVIGFDSGILY | 0.341 ± 0.7 |
| CHQAEPGIGMRSCTLVGEGV | 1.36 ± 0.61 |
| CHQFV | 0.833 ± 0.5 |

| Substance | amyloid nucleation score |
| --- | --- |
| CHVQMSFNGLRYNFHTIFFI | 1.2 ± 0.74 |
| CICLDTSGSVLYSLCTDCGL | 0.871 ± 0.69 |
| CIGRCMWI | 1.81 ± 0.61 |
| CIIVVSTRAADPDLCSYIML | 0.234 ± 0.75 |
| CILLVFEDMWVSIV | -0.53 ± 0.36 |
| CILRRMDADFIFIVCVDCFG | -0.055 ± 0.4 |
| CIRGGSIWLMGHNVREVC | 0.401 ± 0.49 |
| CIRVSIVID | 0.215 ± 0.38 |
| CIVVMGSVAYHGRFYFVDVE | 1.43 ± 0.76 |
| CIVVTLYSIMFRDGS | inactive |
| CKMNYGLVLAGSLGVGSGQD | 0.317 ± 0.42 |
| CKRLS | -0.216 ± 1.1 |
| CKRTSDPCHIVECFLPFHVL | 0.315 ± 0.85 |
| CKVTSGDIQTYGVLGPQRPA | -1.05 ± 1.1 |
| CLFDHKFMRIALHL | inactive |
| CLFKGLCSGWLREYALPYFC | -1.05 ± 0.97 |
| CLINFP | 0.722 ± 0.74 |
| CLLTNTKFWYISMSHDLGCL | 0.559 ± 0.34 |
| CLMGTHILGSRVVGTPSMVR | 0.47 ± 1.2 |
| CLMIKMHSILIDVIYLHTRV | -0.363 ± 0.77 |
| CLRPLEPDVYVTRILRFCDS | -0.304 ± 0.39 |
